Literature values in PMC3894449.

Columns and labels:
[1] = target: IL-15Ralpha (Homo sapiens) (UniProt Q13261)
[2] = target: IL-2Ralpha (Homo sapiens) (UniProt P01589)
UniProt P01589, sequence (P01589 22-240): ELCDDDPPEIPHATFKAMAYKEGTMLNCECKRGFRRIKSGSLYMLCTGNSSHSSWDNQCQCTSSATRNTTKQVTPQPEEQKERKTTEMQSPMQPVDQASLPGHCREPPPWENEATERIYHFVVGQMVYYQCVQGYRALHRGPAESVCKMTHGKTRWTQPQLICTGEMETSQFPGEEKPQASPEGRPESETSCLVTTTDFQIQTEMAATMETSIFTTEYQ

UniProt Q13261, sequence (Q13261 31-205): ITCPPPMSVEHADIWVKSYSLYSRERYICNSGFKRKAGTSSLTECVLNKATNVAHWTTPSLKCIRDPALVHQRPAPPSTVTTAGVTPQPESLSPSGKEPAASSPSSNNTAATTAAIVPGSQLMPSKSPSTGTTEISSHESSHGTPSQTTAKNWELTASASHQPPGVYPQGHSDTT

Substance: IL-15 (from UniProt P40933)
- Kd [1]: 0.05 nM

Substance: IL-2 (from UniProt P60568)
- Kd [2]: 20 nM
